Among the targets are GDX-IVG (zymogen) (UniProt P00742); GDX-AVG (zymogen) (UniProt P00742); GDX-SFR (zymogen) (UniProt P00742); FX-recombinant (zymogen) (UniProt P00742); GDX-SVG (zymogen) (UniProt P00742); GDX-IFG (zymogen) (UniProt P00742).
Series [1] has as its target D-Phe-Phe-Arg-CH3Cl. In words: inactivation kinetics: residual amidolytic activity on S2765 after incubation with D-FFR-CK, pseudo-first order, 25° C.
Series [2] has as its target T1, antithrombin (purified from human plasma) (human, UniProt P01008 33-464).
T1 construct: mature
Kind of series: inhibition kinetics, continuous S2765 hydrolysis, pseudo-first order, no heparin, 25° C. From the text:
The method by continuous recording of the absorbance at 405 nm under pseudo-first order conditions is used to estimate (in the absence of heparin) the kₒₙ of the antithrombin for the activated form of the factor X derivative lacking Gla domain, and those of the activated forms of the GDX-IVG and GDX-IFG derivatives.

Series [3] concerns the target prothrombin (immunopurified).
The target of series [4] is T1, antithrombin (purified from human …). Kind of series: inhibition kinetics, continuous S2765 hydrolysis, second-order (slow tight-binding) conditions, 2 units/ml heparin, 25° C. As for the experimental part:
The kinetics are studied at 25° C., in kinetics buffer containing 1 mg/ml of protease-free bovine albumin and 2 units per ml of heparin; they are followed continuously by virtue of the presence in the reaction medium of 400 μM S2765. The reaction is carried out in a microcuvette in a volume of 600 μl, following the kinetics using a lambda 14 spectrophotometer. The reaction is triggered by adding the minimum amount of activated form of the factor X derivative which is compatible with a reliable signal (1 to 2.5 nM depending on the derivative, such that, in the absence of inhibitor, approximately 10% of the chromogenic substrate is hydrolysed in 60 minutes). For each activated form of factor X derivative, the reaction is carried out in the presence of two concentrations of antithrombin, equal to 2 and 3 times the concentration of the target. By plotting the absorbance at 405 nm as a function of time, a curve is obtained which makes it possible, by non-linear regression using equation 6, to estimate the second-order rate constant for the reaction. The kₒₙ of the antithrombin for the activated form of the factor X derivative is given by equation 5 which takes into consideration the competition introduced by the substrate during the kinetics.

Series [5] has the same target. Kind of series: inhibition kinetics with antithrombin, no heparin.
Series [6] has as its target D-Phe-Phe-Arg-CH3Cl. Kind of series: inactivation kinetics with D-FFR-CK, residual amidolytic activity on S2765.
The target of series [7] is T1, antithrombin (purified from human …). In words: inhibition kinetics, batchwise residual amidolytic activity on S2765, pseudo-first order, 2 units/ml heparin, 25° C. As for the experimental part: The method by batchwise sampling of aliquots is used to estimate the kₒₙ of the antithrombin for the activated form of the GDX-AVG derivative (in the presence and the absence of heparin).
The reaction is carried out in kinetics buffer containing 1 mg/ml of protease-free bovine albumin (SIGMA, St Quentin-Fallavier, France) and, when appropriate, 2 units per ml of heparin (KORDIA). In a reaction volume of 10 μl, a sufficient amount of the activated form of the GDX-AVG derivative (0.5 μM in the presence of heparin, 1 μM in its absence) is incubated in the presence of a large excess of antithrombin (5 μM in the presence of heparin, 10 μM in its absence), for a varying amount of time at 25° C. The same experiment is repeated twelve times, varying the incubation time from one experiment to another (from 10 seconds for the first to 5 hours for the last, such that the incubation time for a given experiment is equal to double that of the preceding one). At the end of each incubation, 190 μl of S2765 (200 μM in kinetics buffer) are added, and the residual amidolytic activity is measured by recording the variation in the absorbance at 405 nm as a function of time (i.e. the initial rate of hydrolysis of the S2765) using an MR5000 microplate reader. […]

Series [8] has the same target. In words: SDS-PAGE of covalent complexes, 1 µM derivative, 2 µM antithrombin, 2 units/ml heparin. As for the experimental part:
(§1) The incubation is sustained for one hour at 25° C., and the reaction mixture is analysed by polyacrylamide gel electrophoresis (10%, crosslinking 29/1), after denaturation and reduction of the sample. After staining with Coomassie blue, the presence of covalent complexes between the (inactivated) form of the factor X derivative and the antithrombin results in a decrease in the intensity of the band corresponding to antithrombin (60 kDa), a decrease in the intensity of the band corresponding to the activated form of the factor X derivative (31 kDa), and the appearance of a new band of higher molecular weight (approximately 100 kDa) corresponding to the covalent complex.

The target is the same in series [9]. In words: SDS-PAGE with Coomassie blue after incubation with antithrombin and heparin. As for the experimental part:
as §1

Changes are numbered by the printed parent chain.

T1 sequence (P01008 33-464): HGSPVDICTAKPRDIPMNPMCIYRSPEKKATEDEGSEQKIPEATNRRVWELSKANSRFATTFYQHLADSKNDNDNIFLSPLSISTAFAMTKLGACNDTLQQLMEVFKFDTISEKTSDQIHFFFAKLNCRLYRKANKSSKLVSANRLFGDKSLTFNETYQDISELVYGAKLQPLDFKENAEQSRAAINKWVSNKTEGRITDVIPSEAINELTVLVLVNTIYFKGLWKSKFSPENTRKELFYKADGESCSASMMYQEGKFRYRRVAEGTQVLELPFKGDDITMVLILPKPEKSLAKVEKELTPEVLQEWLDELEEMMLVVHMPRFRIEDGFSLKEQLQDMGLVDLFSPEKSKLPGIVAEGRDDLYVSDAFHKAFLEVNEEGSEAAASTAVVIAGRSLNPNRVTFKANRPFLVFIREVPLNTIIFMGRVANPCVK

Take “activated form of the factor X from plasma (from UniProt P00742 41-179; P00742 235-488) (enzyme)”: the kon in the series with D-Phe-Phe-Arg-CH3Cl [1] amounted to 2300 M⁻¹ s⁻¹.

In the case of thrombin, the kcat/Km (M^-1 s^-1) for the activation of the factor X derivative by thrombin was below 1 M⁻¹ s⁻¹ in the series with GDX-IVG (zymogen); 1 10^2 (±9%) with GDX-AVG (zymogen); 4 10^3 (±27%) in the series with GDX-SFR (zymogen); below 1 M⁻¹ s⁻¹ in the series with GDX-SVG (zymogen); below 1 M⁻¹ s⁻¹ with GDX-IFG (zymogen). Moreover, the “cleavage of the factor X derivative by thrombin” value in the series with FX-recombinant (zymogen) was “the FX-recombinant is not detectably cleavable by thrombin (ND)”.

B1: activated form of the GDX-IVG derivative (enzyme, human)
light: EDQVDPRLIDGKDGDQCETSPCQNQGKCKDGLGEYTCTCLEGFEGKNCELFTRKLCSLDNGDCDQFCHEEQNSVVCSCARGYTLADNGKACIPTGPYPCGKQTLER
heavy: IVGGQECKDGECPWQALLINEENEGFCGGTILSEFYILTAAHCLYQAKRFKVRVGDRNTEQEEGGEAVHEVEVVIKHNRFTKETYDFDIAVLRLKTPITFRMNVAPACLPERDWAESTLMTQKTGIVSGFGRTHEKGRQSTRLKMLEVPYVDRNSCKLSSSFIITQNMFCAGYDTKQEDACQGDSGGPHVTRFKDTYFVTGIVSWGEGCARKGKYGIYTKVTAFLKWIDRSMKTRGLPKAKSHAPEVITSSPLKEQKLISEEDLN
notes: domain: two EGF domains;domain: catalytic domain
B1: the results for the kon (in series [2]; in [4]; with D-Phe-Phe-Arg-CH3Cl [1]) were 5800 M⁻¹ s⁻¹, 2e+07 M⁻¹ s⁻¹ and 2250 M⁻¹ s⁻¹, respectively. Also, the “coefficient of acceleration of pNA release by the thrombin generated by the activated factor X derivative alone (-factor Va)” value (“coefficient of acceleration … (-factor Va)” below) in series [3] is 2.8 10^-5 (±2%). In the series with factor Va (KORDIA), the “coefficient of acceleration of pNA release by the thrombin generated by the prothrombinase complex (+factor Va)” value (shortened to “coefficient of acceleration … (+factor Va)”) was 1.1 10^-4 (±1%). In addition, the “fold increase of the rate of activation of the prothrombin on addition of factor Va” value in the series with factor Va (KORDIA) is “the addition of factor Va increases the rate of activation of the prothrombin 50-fold and 10-fold respectively”.

B2: activated form of the GD-FX derivative (enzyme, human)
light: B1 light
heavy: B1 heavy
notes: as for B1
Consider B2, for which the results for the kon (in series [2]; in series [4]; in the series with D-Phe-Phe-Arg-CH3Cl [1]) were 12000 M⁻¹ s⁻¹, 1.3e+07 M⁻¹ s⁻¹ and 2230 M⁻¹ s⁻¹, respectively. In series [3], the “coefficient of acceleration … (-factor Va)” value is 8.8 10^-6 (±2%). The “coefficient of acceleration … (+factor Va)” value with factor Va (KORDIA) is recorded as 4.2 10^-4 (±2%). In addition, the “fold increase of the rate of activation of the prothrombin on addition of factor Va” value with factor Va (KORDIA) was “the addition of factor Va increases the rate of activation of the prothrombin 50-fold and 10-fold respectively”.

B3: activated form of the GDX-AVG derivative (enzyme, human)
light: B1 light
heavy: B1 heavy with I1A
notes: as for B1
In the case of B3, the “fold decrease of kon against its non-mutated homologue (no heparin)” value in series [5] was above 1000 times less. For the same molecule, the “coefficient of acceleration … (-factor Va)” value in series [3] is 9.6 10^-7 (±2%). Besides, in the series with factor Va (KORDIA), the “coefficient of acceleration … (+factor Va)” value was 3.1 10^-5 (±1%) and the “rate of activation of the prothrombin with factor Va, against the non-mutated homologue (GDX-IVG)” value is given as “this is now only 13 times less than that obtained for the activated form of its non-mutated homologue (GDX-IVG)”. For the same molecule, in the series with D-Phe-Phe-Arg-CH3Cl [6], the fold decrease of kon against the activated form of the factor X from plasma turned out to be 1000 times less. For the same molecule, the kon in series [7] was found to be 300 M⁻¹ s⁻¹.

B4: activated form of the GDX-IFR derivative (enzyme, human)
light: B1 light
heavy: B1 heavy with V2F, G3R
notes: as for B1
As to B4, the “coefficient of acceleration … (+factor Va)” value in the series with factor Va (KORDIA) was 3.3 10^-6 (±1%). Further, the binding result in [8] was “binds”.

B5: activated form of the GDX-SVG derivative (enzyme, human)
light: B1 light
heavy: B1 heavy with I1S
notes: as for B1
On to B5, for which the binding result in series [8] is on record as “binds”.

B6: activated form of the GDX-SFR derivative (enzyme, human)
light: B1 light
heavy: B1 heavy with I1S, V2F, G3R
notes: as for B1
Regarding B6, the binding result in series [9] is listed as “no binding”.

B7: activated form of the GDX-IFG derivative (enzyme, human)
light: B1 light
heavy: B1 heavy with V2F
notes: domain: two EGF domains;domain: catalytic domain; Position 236 counted from the printed Ile235 = P1′
With B7, in [5], the “fold decrease of kon against the non-mutated activated forms (no heparin)” value was 66 times smaller. Further, the kon in series [2] was determined as 180 M⁻¹ s⁻¹; in series [4], 760000 M⁻¹ s⁻¹. Besides, in [3], the “coefficient of acceleration … (-factor Va)” value was 1.0 10^-7 (±2%). The “coefficient of acceleration … (+factor Va)” value with factor Va (KORDIA) is reported as 4.9 10^-6 (±1%). The fold decrease of kon against the activated form of the factor X from plasma with D-Phe-Phe-Arg-CH3Cl [6] came out at 20 times lower.

As a reminder, the kon is the rate constant with which the complex forms.

Values taken from patent US20060148038A1 (INST NAT L DE LA SANTE ET DE LA RECH MEDICALE, published 2006).
